Measured values published in article doi:10.1101/2022.10.03.510161.

Tests used:
[1] = target: P74-26 TTP L229A variant (bacteriophage P74-26); test: light scattering of tube assembly
[2] = target: P74-26 tail tube protein (TTP), gp93, in the tail tube of purified virions (bacteriophage P74-26); test: cryo-EM structure
[3] = target: P74-26 tail tube protein (TTP), gp93, recombinant wild type (bacteriophage P74-26); test: light scattering of tube assembly
[4] = target: P74-26 tail tube protein (TTP), gp93, recombinant wild type (bacteriophage P74-26); test: SEC-MALS

Question: With “P74-26 TTP L229A variant (natural protein)” as the substance, how does the tube formation rate relative to WT [1] read?
Answer: The tube formation rate relative to WT was 10 % of the WT.

Question: Which stoichiometry N [2] does the source give for “P74-26 tail tube protein (TTP), gp93, in the tail tube of purified virions (natural protein)” here?
Answer: The stoichiometry N was 3.

Question: With “P74-26 tail tube protein (TTP), gp93, recombinant wild type (natural protein)” as the substance, how does the tube growth rate at 37 °C relative to 20 °C (x the 20°C rate) [3] read?
Answer: Its tube growth rate at 37 °C relative to 20 °C (x the 20°C rate) is 68.

Question: What about the tube growth rate at 50 °C relative to 20 °C (x the 20°C rate) [3] of the same substance?
Answer: Its tube growth rate at 50 °C relative to 20 °C (x the 20°C rate) is 3520.

Question: And the mass fraction of the hexamer peak [4]?
Answer: Its mass fraction of the hexamer peak is 6%.

Question: And the stoichiometry N [4]?
Answer: Its stoichiometry N is 6.
